Measurements from publication PMC6975927.
One block for each molecule: values may come before it.

What was measured:
[1] = target: SCF^FBW7 (CUL1-RBX1 with FBW7(263-C-terminus)-SKP1 complex) (human) (UniProt Q13616)
[2] = target: SCF^βTRCP (CUL1-RBX1 with full-length βTRCP2 (FBW11)-SKP1 complex) (human) (UniProt Q13616)

KM of UBE2D3 in multi-turnover ubiquitylation of 32P-labeled Cyclin E peptide by SCF^FBW7 [1]: 1.67 µM
KM of UBE2D3 in multi-turnover ubiquitylation of 32P-labeled β-Catenin peptide by SCF^βTRCP [2]: 0.488 µM
Molecule: UBE2D3 (from UniProt P61077 1-147) (enzyme)

KM of UBE2G1 in multi-turnover ubiquitylation of 32P-labeled mono-ubiquitylated Cyclin E peptide (Ub-Cyclin E) by SCF^FBW7 [1]: 1.3 µM
B1: UBE2G1 (enzyme)
chain: MTELQSALLLRRQLAELNKNPVEGFSAGLIDDNDLYRWEVLIIGPPDTLYEGGVFKAHLTFPKDYPLRPPKMKFITEIWHPNVDKNGDVCISILHEPGEDKYGYEKPEERWLPIHTVETIMISVISMLADPNGDSPANVDAAKEWREDRNGEFKRKVARCVRKSQETAFE
